Source: patent US20130011427A1 (priority 2009, published 2013)

Molecular target: HLA-A2.1 (HHD monochain) (human; murine)
Assay: cell-based or functional assay

| Substance | IFN-γ ELISpot (SFC/10^6) |
| --- | --- |
| WNV E 68-85 peptide | 372 |
| WNV E 450-467 peptide | 205 |
| WNV NS1 228-245 peptide | 84 |
| WNV NS1 236-251 peptide | 78 |
| WNV NS2a 160-177 peptide | 63 |
| WNV NS2b 115-131 peptide | 108 |
| WNV NS3 70-87 peptide | 174 |
| WNV NS3 78-95 peptide | 150 |
| WNV NS3 85-100 peptide | 72 |
| WNV NS3 91-107 peptide | 156 |
| WNV NS3 98-115 peptide | 145 |
| WNV NS3 138-155 peptide | 159 |
| WNV NS3 146-162 peptide | 58 |
| WNV NS3 161-177 peptide | 56 |
| WNV NS3 183-200 peptide | 62 |
| WNV NS3 206-223 peptide | 108 |

| Substance | IFN-γ ELISpot (SFC/10^6) |
| --- | --- |
| WNV NS3 221-237 peptide | 26 |
| WNV NS3 241-258 peptide | 127 |
| WNV NS3 249-266 peptide | 79 |
| WNV NS3 265-282 peptide | 150 |
| WNV NS3 304-321 peptide | 94 |
| WNV NS3 317-333 peptide | 151 |
| WNV NS3 324-340 peptide | 117 |
| WNV NS3 336-352 peptide | 167 |
| WNV NS3 343-360 peptide | 55 |
| WNV NS3 359-376 peptide | 75 |
| WNV NS3 413-430 peptide | 130 |
| WNV NS3 515-532 peptide | 140 |
| WNV NS3 523-539 peptide | 57 |
| WNV NS3 530-547 peptide | 127 |
| WNV NS5 448-463 peptide | 26 |

Molecular target: HLA-DR2 (chimeric HLA-DRA1*0101/DRB1*1501 with I-E domains) (human; murine) (UniProt Q8BHN5)
UniProt Q8BHN5, sequence (Q8BHN5 whole entry, stated change not applied): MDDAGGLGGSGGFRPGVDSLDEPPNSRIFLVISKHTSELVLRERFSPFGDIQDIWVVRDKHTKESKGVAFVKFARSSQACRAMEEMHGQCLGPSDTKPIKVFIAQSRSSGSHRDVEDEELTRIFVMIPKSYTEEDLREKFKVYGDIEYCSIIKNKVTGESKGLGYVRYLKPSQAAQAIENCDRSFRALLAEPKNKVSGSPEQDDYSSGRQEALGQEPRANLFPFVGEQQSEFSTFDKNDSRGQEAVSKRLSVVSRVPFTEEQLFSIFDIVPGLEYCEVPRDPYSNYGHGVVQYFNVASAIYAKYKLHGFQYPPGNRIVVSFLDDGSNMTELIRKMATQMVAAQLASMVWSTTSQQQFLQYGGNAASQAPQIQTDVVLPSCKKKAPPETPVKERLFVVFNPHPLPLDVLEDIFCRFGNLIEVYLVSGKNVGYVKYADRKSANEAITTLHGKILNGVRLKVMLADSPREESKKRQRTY
Assay: cell-based or functional assay

| Substance | IFN-γ ELISpot (SFC/10^6) |
| --- | --- |
| WNV E 450-467 peptide | 261 |
| WNV E 458-474 peptide | 51 |
| WNV NS1 161-178 peptide | 134 |
| WNV NS2a 6-23 peptide | 563 |
| WNV NS2a 52-66 peptide | 516 |
| WNV NS2a 80-97 peptide | 289 |
| WNV NS2a 128-145 peptide | 384 |
| WNV NS2a 136-154 peptide | 98 |
| WNV NS2a 211-229 peptide | 74 |
| WNV NS2b 39-56 peptide | 47 |
| WNV NS2b 59-75 peptide | 59 |
| WNV NS3 22-38 peptide | 155 |
| WNV NS3 161-177 peptide | 72 |
| WNV NS3 176-192 peptide | 59 |
| WNV NS3 183-200 peptide | 55 |
| WNV NS3 199-216 peptide | 52 |

| Substance | IFN-γ ELISpot (SFC/10^6) |
| --- | --- |
| WNV NS3 206-223 peptide | 323 |
| WNV NS3 214-230 peptide | 146 |
| WNV NS3 249-266 peptide | 139 |
| WNV NS3 265-282 peptide | 169 |
| WNV NS3 455-469 peptide | 200 |
| WNV NS3 460-475 peptide | 123 |
| WNV NS3 515-532 peptide | 95 |
| WNV NS3 523-539 peptide | 160 |
| WNV NS3 588-605 peptide | 42 |
| WNV NS4b 30-47 peptide | 89 |
| WNV NS4b 233-250 peptide | 62 |
| WNV NS5 181-198 peptide | 122 |
| WNV NS5 212-229 peptide | 168 |
| WNV NS5 598-615 peptide | 252 |
| WNV prM 114-130 peptide | 101 |
| WNV prM 144-161 peptide | 84 |

Tested on: HLA-A2.1 (HLA-A*0201) Tg mice, CD4-depleted splenocytes
Assay: not given
Type: cell-based, mouse

| Substance | T cell activation of HLA transgenic mice (SFC/10^6) IFN-γ ELISpot, A2 [SFC/10^6] |
| --- | --- |
| ATPPGTSDPFPESNSPI [NS3 317-333] | 151 ± 18 |
| CYGGPWKLQHKWNGQDEV [NS3 78-95] | 150 ± 17 |
| DPFPESNSPISDLQTEI [NS3 324-340] | 117 ± 20 |
| ECHTCIYNMMGKREKK [NS5 448-463] | 26 ± 7 |
| EMGANFKASRVIDSRKSV [NS3 413-430] | 130 ± 15 |
| ERKNFLELLRTADLPVWL [NS3 530-547] | 127 ± 10 |
| GQDEVQMIVVEPGKNVK [NS3 91-107] | 156 ± 11 |
| GSVKEDRLCYGGPWKLQH [NS3 70-87] | 174 ± 13 |

Tested on: HLA-DR2 (DRB1*1501) Tg mice, CD8-depleted splenocytes
Assay: not given
Type: cell-based, mouse

| Substance | T cell activation of HLA transgenic mice (SFC/10^6) IFN-γ ELISpot, DR2 [SFC/10^6] |
| --- | --- |
| AAQRRGRIGRNPSQV [NS3 455-469] | 200 ± 27 |
| DISWESDAEITGSSERV [NS2b 59-75] | 59 ± 12 |
| EIPDVLNSLAVAWMILRA [NS2a 128-145] | 384 ± 125 |
| ERKILRPRWIDARVYSDH [NS3 588-605] | 42 ± 4 |
| GEFLLDLRPATAWSLYAV [NS4b 30-47] | 89 ± 21 |
| GKTRRILPQIIKEAINRR [NS3 199-216] | 52 ± 6 |
| GLFNPMILAAGLIACDPNR [NS2a 211-229] | 74 ± 23 |
| GLTSTRMFLKVRESNTTE [NS1 161-178] | 134 ± 8 |
| GRIGRNPSQVGDEYCY [NS3 460-475] | 123 ± 4 |
| GWLSCLSITWTLIKNMEK [NS4b 233-250] | 62 ± 6 |
| IDPFQLGLLVVFLATQEV [NS2a 6-23] | 563 ± 41 |
| LAVAWMILRAITFTTTSNV [NS2a 136-154] | 98 ± 22 |
| MATFKIQPVFMVASFLKA [NS2a 80-97] | 289 ± 83 |
| MFAAFVISGKSTDMWIER [NS2b 39-56] | 47 ± 18 |
| NRRLRTAVLAPTRVVAA [NS3 214-230] | 146 ± 29 |
| PAGFEPEMLRKKQITVL [NS3 176-192] | 59 ± 8 |
| REDQRGSGQVVTYALNTF [NS5 598-615] | 252 ± 41 |
| SRNSTHEMYWVSRASGNV [NS5 212-229] | 168 ± 13 |
| STKATRYLVKTESWILR [prM 114-130] | 101 ± 33 |
| SWITQGLLGALLLWMGI [E 458-474] | 51 ± 4 |
| TDVLRYVILVGAAFA [NS2a 52-66] | 516 ± 9 |
| VKVLCPYMPKVIEKMELL [NS5 181-198] | 122 ± 40 |
| VYRIMTRGLLGSYQAGA [NS3 22-38] | 155 ± 22 |
